In PMC12846365:

Key:
[1] = molecular target: 48d.cl IC, 3 plasmid version (Fab-Fab-crosslinked, K126C) (HIV-1 strain BG505); assay: native gel or EMSA
[2] = molecular target: 48d.cl IC, fusion version (gpCore + 48d heavy chain fusion, Fab-Fab-crosslinked K126C) (HIV-1 strain BG505); assay: native gel or EMSA

wtA32 (antibody)
stoichiometry N [1]: 2 | stoichiometry N [2]: 2

wtVRC01 (antibody)
stoichiometry N [1]: 1 | stoichiometry N [2]: 1
